Experimental data reported in publication PMC3936014 (Nature communications, 2014).
Like-named read-outs stand apart in the source and are kept apart here.

Assays:
TFAM (43-237) [1] = biological target: T1, TFAM (43-237) (Homo sapiens, UniProt Q00059 43-237); assay: X-ray crystallography
T1 sequence: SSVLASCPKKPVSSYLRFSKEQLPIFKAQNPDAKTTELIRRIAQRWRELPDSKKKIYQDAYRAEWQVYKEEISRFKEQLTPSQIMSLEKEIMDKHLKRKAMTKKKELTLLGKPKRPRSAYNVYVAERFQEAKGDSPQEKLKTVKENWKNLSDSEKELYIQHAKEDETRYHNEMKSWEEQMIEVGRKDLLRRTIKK

TFAM (43-237) [2] = biological target: T1, TFAM (43-237); assay: X-ray crystallography; remark: listed apart in the source
TFAM (mature) = biological target: T2, TFAM (mature) (Homo sapiens, UniProt Q00059 43-246); assay: FRET DNA bending
T2 sequence: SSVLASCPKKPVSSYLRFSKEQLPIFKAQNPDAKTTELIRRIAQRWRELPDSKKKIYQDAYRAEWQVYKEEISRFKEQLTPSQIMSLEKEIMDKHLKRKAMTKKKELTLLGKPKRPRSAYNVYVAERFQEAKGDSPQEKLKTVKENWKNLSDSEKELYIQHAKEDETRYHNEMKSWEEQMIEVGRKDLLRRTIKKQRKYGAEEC

crystal structure = biological target: the molecule itself; assay: crystal structure
TFAM (43-237) [3] = biological target: T1, TFAM (43-237); assay: X-ray crystallography; remark: listed apart in the source

B1: nonspecific 22 bp (ATPase6) (dsDNA)
DNA 1: ATTCAACCAATAGCCCTGGCCG
DNA 2: CGGCCAGGGCTATTGGTTGAAT
- binding result (TFAM (43-237) [1]): binds

B2: HSP1 22 bp (dsDNA)
DNA 1: GGTTGGTTCGGGGTATGGGGTT
DNA 2: AACCCCATACCCCGAACCAACC
- binding result (TFAM (43-237) [2]): binds

B3: LSP 28 bp FRET (dsDNA)
DNA 1: TGTTAGTTGGGGGGTGACTGTTAAAAGT
DNA 2: ACTTTTAACAGTCACCCCCCAACTAACA
- binding result (TFAM (mature)): binds

B4: nonspecific 22 bp FRET (dsDNA)
DNA 1: ATTCAACCAATAGCCCTGGCCG
DNA 2: CGGCCAGGGCTATTGGTTGAAT
- binding result (TFAM (mature)): binds

B5: TFAM (transcription factor A, mitochondrial) lacking the last 9 residues (43-237) (domain or fragment, human, UniProt Q00059 43-237, looked up)
chain: SSVLASCPKKPVSSYLRFSKEQLPIFKAQNPDAKTTELIRRIAQRWRELPDSKKKIYQDAYRAEWQVYKEEISRFKEQLTPSQIMSLEKEIMDKHLKRKAMTKKKELTLLGKPKRPRSAYNVYVAERFQEAKGDSPQEKLKTVKENWKNLSDSEKELYIQHAKEDETRYHNEMKSWEEQMIEVGRKDLLRRTIKK
- binding result (crystal structure): binds

B6: HSP1 22 bp FRET (dsDNA)
DNA 1: GGTTGGTTCGGGGTATGGGGTT
DNA 2: AACCCCATACCCCGAACCAACC
- binding result (TFAM (mature)): binds

B7: HSP1-Br 22 bp (dsDNA)
DNA 1: GGTTGGTTCGGGGTATGGGGTT
DNA 2: AACCCCATACCCCGAACCAACC
modifications: 5-bromo-dU replacing T at strand 1 position 4 (mtDNA 550)
- binding result (TFAM (43-237) [3]): binds
